Experiments:
CTCF (human) [1] = target: T1, CTCF (human) (UniProt P49711); experiment: EMSA; settings: 10 mM Tris (pH not stated), 50 mM KCl, 5 mM MgCl2, 0.1 mM ZnSO4, 1 mM DTT, 0.1% NP-40, 50 ng/µl poly(dI-dC), 2.5% glycerol, 20 fmol probe, 30 min at 25 C
T1 sequence: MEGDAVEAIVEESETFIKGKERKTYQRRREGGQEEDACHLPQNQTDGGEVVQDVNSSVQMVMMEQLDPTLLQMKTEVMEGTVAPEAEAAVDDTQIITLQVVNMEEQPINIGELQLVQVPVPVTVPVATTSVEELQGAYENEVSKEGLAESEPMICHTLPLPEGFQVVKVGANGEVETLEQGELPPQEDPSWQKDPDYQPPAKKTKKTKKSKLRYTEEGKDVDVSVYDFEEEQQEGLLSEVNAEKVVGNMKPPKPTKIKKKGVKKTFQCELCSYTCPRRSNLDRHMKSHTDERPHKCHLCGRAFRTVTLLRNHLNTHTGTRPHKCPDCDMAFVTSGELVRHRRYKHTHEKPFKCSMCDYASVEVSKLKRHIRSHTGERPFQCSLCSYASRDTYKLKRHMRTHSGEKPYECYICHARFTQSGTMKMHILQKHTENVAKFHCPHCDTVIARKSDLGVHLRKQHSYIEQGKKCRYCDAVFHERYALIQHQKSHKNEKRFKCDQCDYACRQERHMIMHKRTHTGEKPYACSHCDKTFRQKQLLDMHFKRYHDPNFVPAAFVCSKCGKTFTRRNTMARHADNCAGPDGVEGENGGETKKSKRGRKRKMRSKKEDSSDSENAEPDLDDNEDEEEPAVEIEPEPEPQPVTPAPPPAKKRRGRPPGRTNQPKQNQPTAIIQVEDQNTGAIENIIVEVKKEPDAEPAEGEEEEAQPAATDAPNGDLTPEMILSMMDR

CTCF (human) [2] = experiment: EMSA; parameters: unit not given here; settings: 10 mM Tris (pH not stated), 50 mM KCl, 5 mM MgCl2, 0.1 mM ZnSO4, 1 mM DTT, 0.1% NP-40, 50 ng/µl poly(dI-dC), 2.5% glycerol, 20 fmol probe, 30 min at 25 C

ACCTGTAACATTTCCTTTCCAGTTGCCGGATTCATTATAAGGATATGTACAGTTTGTTGCGTTGTATTGCGCCACCCGTTGGCTTAGGAAAGAACTGCCCTCGTAGGTTGGCCTACAAGGTTTGCAACTTCAGAGCCTC (double strand) [Cacna1b e37a DNA probe (139 bp)]
binding signal (CTCF (human) [1]): binds

Cacna1b e37a DNA probe (139 bp)
Kd (CTCF (human) [2]): 0.0461

TCAGTGCAGGGTCAAGGTCTACCTTGTATGCAACTCGAGCCGGGCATTTCTTCCCCAACCCCAGAGGTGGGGACATGTGTTTCAGCATCTCAAACATGTCATTGTAACTGATGCGCCCACTGGAAACCCGTTCCAGAGG (double strand) [Cacna1b e37b DNA probe (139 bp)]
binding (CTCF (human) [1]): no binding

Reference: paper PMC7124252
